Laboratory results published in paper PMC3958346, “Clearance Kinetics and Matrix Binding Partners of the Receptor for Advanced Glycation End Products” (PLoS ONE, 2014).
Values joined by “and” are separate entries in the source; they are usually repeats but may differ in a detail not shown here. Equal entries are not always repeated.

Assays:
Assay in all cases: BLI; ForteBIO Octet; purified mouse sRAGE conjugated to amine-reactive sensor tips, matrix protein in solution in varying concentrations; 1800 s association, dissociation in PBS; fit to the 1:1 Langmuir model; constants printed for each analyte concentration
Details in all cases: both partners purified
Laminin = molecular target: Laminin
Collagen IV = Collagen IV (Sigma product, species and catalogue number not printed (human placenta or mouse EHS are both likely). Common alpha1(IV)2 alpha2(IV) heterotrimer taken by convention, 7S domain kept; hydroxyproline, h)
Collagen I = Collagen I (Sigma product, species and catalogue number not printed (could be rat or bovine). Natural alpha1(I)2 alpha2(I) heterotrimer taken by convention, propeptides removed; hydroxyproline, hydroxylysine, gly)

B1: Mouse soluble RAGE (soluble receptor for advanced glycation end products) (natural protein, UniProt Q62151-1 22-330, looked up)
chain: GGQNITARIGEPLVLSCKGAPKKPPQQLEWKLNTGRTEAWKVLSPQGGPWDSVARILPNGSLLLPATGIVDEGTFRCRATNRRGKEVKSNYRVRVYQIPGKPEIVDPASELTASVPNKVGTCVSEGSYPAGTLSWHLDGKLLIPDGKETLVKEETRRHPETGLFTLRSELTVIPTQGGTHPTFSCSFSLGLPRRRPLNTAPIQLRVREPGPPEGIQLLVEPEGGIVAPGGTVTLTCAISAQPPPQVHWIKDGAPLPLAPSPVLLLPEVGHEDEGTYSCVATHPSHGPQESPPVSIRVTETGDEGPAEGS
notes: Mouse soluble RAGE, residues 22-330, signal peptide cleaved off; mass 35742.30 Da; mouse membrane RAGE has a published length of 402 (NP_031451.2); Native protein from tissue; Coupled to amine-reactive sensor tips in one orientation, in solution in the other; also called sRAGE; mouse sRAGE; source: endotoxin removed with Detoxi-Gel polymyxin B resin
koff (Laminin): 0.000191 s⁻¹ and 0.000102 s⁻¹ and 8.02e-05 s⁻¹ and 0.000108 s⁻¹ | kon (Laminin): 75400 M⁻¹ s⁻¹ and 106000 M⁻¹ s⁻¹ and 136000 M⁻¹ s⁻¹ and 171000 M⁻¹ s⁻¹ | Kd (Collagen IV): 2.57 nM and 3.59 nM and 4.81 nM | koff (Collagen IV): 6.26e-05 s⁻¹ and 7.72e-05 s⁻¹ and 8.1e-05 s⁻¹ | kon (Collagen IV): 24400 M⁻¹ s⁻¹ and 21500 M⁻¹ s⁻¹ and 16700 M⁻¹ s⁻¹ | Kd (Collagen I): 3.51 nM and 1.62 nM and 1.84 nM
